According to IntAct's records for PubMed 35512704:

B1: Mothers against decapentaplegic homolog 4 (Homo sapiens), Q13485 (parent)
chain: MDNMSITNTPTSNDACLSIVHSLMCHRQGGESETFAKRAIESLVKKLKEKKDELDSLITAITTNGAHPSKCVTIQRTLDGRLQVAGRKGFPHVIYARLWRWPDLHKNELKHVKYCQYAFDLKCDSVCVNPYHYERVVSPGIDLSGLTLQSNAPSSMMVKDEYVHDFEGQPSLSTEGHSIQTIQHPPSNRASTETYSTPALLAPSESNATSTANFPNIPVASTSQPASILGGSHSEGLLQIASGPQPGQQQNGFTGQPATYHHNSTTTWTGSRTAPYTPNLPHHQNGHLQHHPPMPPHPGHYWPVHNELAFQPPISNHPAPEYWCSIAYFEMDVQVGETFKVPSSCPIVTVDGYVDPSGGDRFCLGQLSNVHRTEAIERARLHIGKGVQLECKGEGDVWVRCLSDHAVFVQSYYLDREAGRAPGDAVHKIYPSAYIKVFDLRQCHRQMQQQAATAQAAAAAQAAAVAGNIPGPGSVGGIAPAISLSAAAGIGVDDLRRLCILRMSFVKGWGPDYPRQSIKETPCWIEIHLHRALQLLDEVLHTMPIADPQPLD

Variants of: B1
Settings: with maga6_human MAGEA6, P43360

Row | Variant | effect of a mutation on the interaction
1 | R361H | with no effect

Variants of: B1
Settings: with mp2k7_human MAP2K7, O14733

Row | Variant | effect of a mutation on the interaction
2 | R361H | with no effect

Variants of: B1
Settings: with m3k1_human MAP3K1, Q13233

Row | Variant | effect of a mutation on the interaction
3 | R361H | with no effect

Variants of: B1
Settings: with mk10_human MAPK10, P53779

Row | Variant | effect of a mutation on the interaction
4 | R361H | with no effect

Variants of: B1
Settings: with mk14_human MAPK14, Q16539

Row | Variant | effect of a mutation on the interaction
5 | R361H | with no effect

Variants of: B1
Settings: with mk03_human MAPK3, P27361

Row | Variant | effect of a mutation on the interaction
6 | R361H | with no effect

Variants of: B1
Settings: with mk04_human MAPK4, P31152

Row | Variant | effect of a mutation on the interaction
7 | R361H | with no effect

Variants of: B1
Settings: with mk06_human MAPK6, Q16659

Row | Variant | effect of a mutation on the interaction
8 | R361H | with no effect

Variants of: B1
Settings: with mk07_human MAPK7, Q13164

Row | Variant | effect of a mutation on the interaction
9 | R361H | with no effect

Variants of: B1
Settings: with mcl1_human MCL1, Q07820

Row | Variant | effect of a mutation on the interaction
10 | R361H | with no effect

Variants of: B1
Settings: with myc_human MYC

Row | Variant | effect of a mutation on the interaction
11 | R361H | with no effect

Variants of: B1
Settings: with nf1_human NF1, P21359

Row | Variant | effect of a mutation on the interaction
12 | R361H | with no effect

Variants of: B1
Settings: with merl_human NF2, P35240

Row | Variant | effect of a mutation on the interaction
13 | R361H | with no effect

Variants of: B1
Settings: with nfic_human NFIC

Row | Variant | effect of a mutation on the interaction
14 | R361H | with no effect

Variants of: B1
Settings: with nsd3_human NSD3, Q9BZ95
nsd3_human NSD3, Q9BZ95, sequence (Q9BZ95 whole entry): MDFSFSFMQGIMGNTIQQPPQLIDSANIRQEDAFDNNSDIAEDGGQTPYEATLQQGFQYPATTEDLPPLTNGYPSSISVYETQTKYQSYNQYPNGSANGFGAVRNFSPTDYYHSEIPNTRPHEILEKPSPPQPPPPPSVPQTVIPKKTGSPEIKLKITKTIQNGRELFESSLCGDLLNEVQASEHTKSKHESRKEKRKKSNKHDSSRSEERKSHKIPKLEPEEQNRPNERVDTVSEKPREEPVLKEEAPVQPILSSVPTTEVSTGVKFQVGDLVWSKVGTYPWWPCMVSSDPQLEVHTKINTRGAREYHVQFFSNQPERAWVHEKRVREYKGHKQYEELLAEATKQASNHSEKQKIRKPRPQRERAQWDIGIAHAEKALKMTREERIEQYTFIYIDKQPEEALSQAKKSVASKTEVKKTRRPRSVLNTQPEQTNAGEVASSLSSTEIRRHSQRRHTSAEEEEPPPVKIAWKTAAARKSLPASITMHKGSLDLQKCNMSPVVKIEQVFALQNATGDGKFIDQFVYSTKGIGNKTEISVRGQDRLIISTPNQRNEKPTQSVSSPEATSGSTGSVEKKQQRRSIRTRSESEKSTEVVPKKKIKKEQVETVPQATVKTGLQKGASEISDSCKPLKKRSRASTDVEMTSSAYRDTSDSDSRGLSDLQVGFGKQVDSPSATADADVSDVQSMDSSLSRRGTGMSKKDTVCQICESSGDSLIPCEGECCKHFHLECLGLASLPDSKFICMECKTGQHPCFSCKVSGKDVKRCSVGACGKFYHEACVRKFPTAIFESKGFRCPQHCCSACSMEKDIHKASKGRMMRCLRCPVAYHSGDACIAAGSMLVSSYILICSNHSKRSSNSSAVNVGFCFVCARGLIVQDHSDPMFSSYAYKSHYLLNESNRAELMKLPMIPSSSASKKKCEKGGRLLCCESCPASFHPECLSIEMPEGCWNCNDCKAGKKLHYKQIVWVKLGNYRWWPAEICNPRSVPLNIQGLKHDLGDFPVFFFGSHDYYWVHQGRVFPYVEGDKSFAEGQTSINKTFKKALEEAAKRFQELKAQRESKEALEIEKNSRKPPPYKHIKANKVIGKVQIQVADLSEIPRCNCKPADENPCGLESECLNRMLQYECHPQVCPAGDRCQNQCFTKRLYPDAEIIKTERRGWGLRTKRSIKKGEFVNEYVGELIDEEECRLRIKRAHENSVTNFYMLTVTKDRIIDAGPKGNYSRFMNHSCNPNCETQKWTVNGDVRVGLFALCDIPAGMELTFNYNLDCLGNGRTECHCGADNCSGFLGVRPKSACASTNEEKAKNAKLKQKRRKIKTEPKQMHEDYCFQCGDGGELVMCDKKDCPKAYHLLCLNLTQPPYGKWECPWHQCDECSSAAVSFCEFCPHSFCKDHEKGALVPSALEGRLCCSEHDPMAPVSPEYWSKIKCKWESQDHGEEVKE

Row | Variant | effect of a mutation on the interaction
15 | R361H | with no effect

Variants of: B1
Settings: with pak3_human PAK3, O75914

Row | Variant | effect of a mutation on the interaction
16 | R361H | with no effect

Variants of: B1
Settings: with pax5_human PAX5, Q02548

Row | Variant | effect of a mutation on the interaction
17 | R361H | with no effect

Variants of: B1
Settings: with pax9_human PAX9, P55771
pax9_human PAX9, P55771, sequence (P55771 whole entry): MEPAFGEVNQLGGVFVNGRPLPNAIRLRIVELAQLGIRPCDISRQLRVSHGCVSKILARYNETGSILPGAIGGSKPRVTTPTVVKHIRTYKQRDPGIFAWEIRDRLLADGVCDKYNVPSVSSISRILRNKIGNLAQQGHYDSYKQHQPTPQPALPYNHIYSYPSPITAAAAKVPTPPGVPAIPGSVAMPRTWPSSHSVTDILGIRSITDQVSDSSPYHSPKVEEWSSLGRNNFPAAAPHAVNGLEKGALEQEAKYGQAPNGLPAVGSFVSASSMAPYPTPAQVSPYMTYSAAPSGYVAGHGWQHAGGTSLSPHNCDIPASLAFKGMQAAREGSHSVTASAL

Row | Variant | effect of a mutation on the interaction
18 | R361H | with no effect

Variants of: B1
Settings: with pcbp1_human PCBP1, Q15365

Row | Variant | effect of a mutation on the interaction
19 | R361H | with no effect

Variants of: B1
Settings: with pgfra_human PDGFRA

Row | Variant | effect of a mutation on the interaction
20 | R361H | with no effect

Variants of: B1
Settings: with pgfrb_human PDGFRB

Row | Variant | effect of a mutation on the interaction
21 | R361H | with no effect

Variants of: B1
Settings: with pdk1_human PDK1, Q15118
pdk1_human PDK1, Q15118, sequence (Q15118 whole entry, looked up): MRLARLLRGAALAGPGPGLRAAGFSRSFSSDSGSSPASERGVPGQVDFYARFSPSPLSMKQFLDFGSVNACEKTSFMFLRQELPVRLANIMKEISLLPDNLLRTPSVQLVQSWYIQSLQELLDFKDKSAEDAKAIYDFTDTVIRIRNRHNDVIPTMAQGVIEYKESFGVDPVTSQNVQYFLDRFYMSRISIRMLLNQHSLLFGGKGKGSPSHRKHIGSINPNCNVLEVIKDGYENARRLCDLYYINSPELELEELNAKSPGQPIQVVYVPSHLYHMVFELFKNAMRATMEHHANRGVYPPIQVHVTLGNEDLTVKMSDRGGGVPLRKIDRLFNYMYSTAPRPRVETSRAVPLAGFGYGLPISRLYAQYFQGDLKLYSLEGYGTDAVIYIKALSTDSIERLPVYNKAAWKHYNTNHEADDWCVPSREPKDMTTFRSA

Row | Variant | effect of a mutation on the interaction
22 | R361H | with no effect

Variants of: B1
Settings: with PIK3C2B

Row | Variant | effect of a mutation on the interaction
23 | R361H | with no effect

Variants of: B1
Settings: with pk3c3_human PIK3C3, Q8NEB9

Row | Variant | effect of a mutation on the interaction
24 | R361H | with no effect

Variants of: B1
Settings: with pk3ca_human PIK3CA

Row | Variant | effect of a mutation on the interaction
25 | R361H | with no effect

Variants of: B1
Settings: with pk3cg_human PIK3CG

Row | Variant | effect of a mutation on the interaction
26 | R361H | with no effect

Variants of: B1
Settings: with p85a_human PIK3R1, P27986

Row | Variant | effect of a mutation on the interaction
27 | R361H | with no effect

Variants of: B1
Settings: with p85b_human PIK3R2, O00459

Row | Variant | effect of a mutation on the interaction
28 | R361H | with no effect

Variants of: B1
Settings: with dpod1_human POLD1, P28340

Row | Variant | effect of a mutation on the interaction
29 | R361H | with no effect

Variants of: B1
Settings: with dpoe1_human POLE

Row | Variant | effect of a mutation on the interaction
30 | R361H | with no effect

Variants of: B1
Settings: with lipa1_human PPFIA1, Q13136

Row | Variant | effect of a mutation on the interaction
31 | R361H | with no effect

Variants of: B1
Settings: with 2aaa_human PPP2R1A

Row | Variant | effect of a mutation on the interaction
32 | R361H | with no effect

Variants of: B1
Settings: with prdm1_human PRDM1, O75626

Row | Variant | effect of a mutation on the interaction
33 | R361H | with no effect

Variants of: B1
Settings: with aapk2_human PRKAA2, P54646

Row | Variant | effect of a mutation on the interaction
34 | R361H | with no effect

Variants of: B1
Settings: with prss8_human PRSS8, Q16651

Row | Variant | effect of a mutation on the interaction
35 | R361H | with no effect

Variants of: B1
Settings: with ptk6_human PTK6, Q13882

Row | Variant | effect of a mutation on the interaction
36 | R361H | with no effect

Variants of: B1
Settings: with tf65_human RELA

Row | Variant | effect of a mutation on the interaction
37 | R361H | with no effect

Variants of: B1
Settings: with rnf43_human RNF43, Q68DV7

Row | Variant | effect of a mutation on the interaction
38 | R361H | with no effect

Variants of: B1
Settings: with ros1_human ROS1, P08922

Row | Variant | effect of a mutation on the interaction
39 | R361H | with no effect

Variants of: B1
Settings: with rl5_human RPL5, P46777

Row | Variant | effect of a mutation on the interaction
40 | R361H | with no effect

Variants of: B1
Settings: with runx1_human RUNX1, Q01196

Row | Variant | effect of a mutation on the interaction
41 | R361H | with no effect

Variants of: B1
Settings: with ruvb1_human RUVBL1, Q9Y265

Row | Variant | effect of a mutation on the interaction
42 | R361H | with no effect

Variants of: B1
Settings: with rxra_human RXRA

Row | Variant | effect of a mutation on the interaction
43 | R361H | with no effect

Variants of: B1
Settings: with sdha_human SDHA

Row | Variant | effect of a mutation on the interaction
44 | R361H | with no effect

Variants of: B1
Settings: with setb1_human SETDB1, Q15047

Row | Variant | effect of a mutation on the interaction
45 | R361H | with no effect

Variants of: B1
Settings: with sf3b1_human SF3B1, O75533
sf3b1_human SF3B1, O75533, sequence (O75533 whole entry): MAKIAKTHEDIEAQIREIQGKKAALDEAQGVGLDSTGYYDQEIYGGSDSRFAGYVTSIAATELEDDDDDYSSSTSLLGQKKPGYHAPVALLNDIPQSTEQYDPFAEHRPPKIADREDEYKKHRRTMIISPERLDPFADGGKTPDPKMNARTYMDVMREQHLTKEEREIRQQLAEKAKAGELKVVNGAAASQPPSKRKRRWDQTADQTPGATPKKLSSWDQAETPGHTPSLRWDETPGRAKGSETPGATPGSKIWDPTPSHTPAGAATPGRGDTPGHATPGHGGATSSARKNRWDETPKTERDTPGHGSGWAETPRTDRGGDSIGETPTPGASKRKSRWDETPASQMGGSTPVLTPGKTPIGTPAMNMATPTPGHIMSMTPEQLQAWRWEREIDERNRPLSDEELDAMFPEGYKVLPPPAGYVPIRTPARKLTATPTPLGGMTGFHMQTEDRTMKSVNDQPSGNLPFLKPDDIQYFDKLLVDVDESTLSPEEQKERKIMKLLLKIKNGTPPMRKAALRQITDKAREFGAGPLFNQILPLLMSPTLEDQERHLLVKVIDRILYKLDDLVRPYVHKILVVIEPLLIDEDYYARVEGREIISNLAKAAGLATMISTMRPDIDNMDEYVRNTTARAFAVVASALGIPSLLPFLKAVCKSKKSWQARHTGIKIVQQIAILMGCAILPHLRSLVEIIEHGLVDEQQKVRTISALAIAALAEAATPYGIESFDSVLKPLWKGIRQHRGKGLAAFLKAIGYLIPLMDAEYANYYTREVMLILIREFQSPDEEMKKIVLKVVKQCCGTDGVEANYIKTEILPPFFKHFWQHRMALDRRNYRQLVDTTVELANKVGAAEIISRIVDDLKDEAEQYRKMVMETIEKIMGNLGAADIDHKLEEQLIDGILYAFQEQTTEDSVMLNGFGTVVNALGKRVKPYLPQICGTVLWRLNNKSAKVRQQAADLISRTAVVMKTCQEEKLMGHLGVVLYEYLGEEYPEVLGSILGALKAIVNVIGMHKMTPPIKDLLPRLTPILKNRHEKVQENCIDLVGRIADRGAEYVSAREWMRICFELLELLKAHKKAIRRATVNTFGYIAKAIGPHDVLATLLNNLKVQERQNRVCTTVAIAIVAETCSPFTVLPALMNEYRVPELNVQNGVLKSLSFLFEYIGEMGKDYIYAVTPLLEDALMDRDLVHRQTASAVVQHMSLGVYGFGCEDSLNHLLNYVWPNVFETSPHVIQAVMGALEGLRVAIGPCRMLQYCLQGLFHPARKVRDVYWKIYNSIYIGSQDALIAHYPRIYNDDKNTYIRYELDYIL

Row | Variant | effect of a mutation on the interaction
46 | R361H | with no effect

Variants of: B1
Settings: with skp2_human SKP2, Q13309

Row | Variant | effect of a mutation on the interaction
47 | R361H | with no effect

Variants of: B1
Settings: with smad1_human SMAD1, Q15797

Row | Variant | effect of a mutation on the interaction
48 | R361H | with no effect

Variants of: B1
Settings: with smad2_human SMAD2, Q15796

Row | Variant | effect of a mutation on the interaction
49 | R361H | with no effect

Variants of: B1
Settings: with smad3_human SMAD3, P84022
smad3_human SMAD3, P84022, sequence (P84022 whole entry, looked up): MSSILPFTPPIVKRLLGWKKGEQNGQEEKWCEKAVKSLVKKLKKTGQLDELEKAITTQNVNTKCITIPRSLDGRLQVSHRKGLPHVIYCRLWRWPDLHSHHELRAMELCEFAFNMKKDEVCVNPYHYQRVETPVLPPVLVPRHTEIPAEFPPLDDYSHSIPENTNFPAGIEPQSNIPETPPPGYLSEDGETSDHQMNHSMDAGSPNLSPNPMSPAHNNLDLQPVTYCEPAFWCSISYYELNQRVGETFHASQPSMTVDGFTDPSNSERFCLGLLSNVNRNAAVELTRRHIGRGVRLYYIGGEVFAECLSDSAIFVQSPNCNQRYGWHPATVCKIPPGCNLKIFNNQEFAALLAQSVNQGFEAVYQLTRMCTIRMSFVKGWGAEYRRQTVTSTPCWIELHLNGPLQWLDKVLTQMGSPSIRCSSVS

Row | Variant | effect of a mutation on the interaction
50 | R361H | with no effect

Variants of: B1
Settings: with smca4_human SMARCA4, P51532

Row | Variant | effect of a mutation on the interaction
51 | R361H | with no effect

Variants of: B1
Settings: with snf5_human SMARCB1, Q12824
snf5_human SMARCB1, Q12824, sequence (Q12824 whole entry): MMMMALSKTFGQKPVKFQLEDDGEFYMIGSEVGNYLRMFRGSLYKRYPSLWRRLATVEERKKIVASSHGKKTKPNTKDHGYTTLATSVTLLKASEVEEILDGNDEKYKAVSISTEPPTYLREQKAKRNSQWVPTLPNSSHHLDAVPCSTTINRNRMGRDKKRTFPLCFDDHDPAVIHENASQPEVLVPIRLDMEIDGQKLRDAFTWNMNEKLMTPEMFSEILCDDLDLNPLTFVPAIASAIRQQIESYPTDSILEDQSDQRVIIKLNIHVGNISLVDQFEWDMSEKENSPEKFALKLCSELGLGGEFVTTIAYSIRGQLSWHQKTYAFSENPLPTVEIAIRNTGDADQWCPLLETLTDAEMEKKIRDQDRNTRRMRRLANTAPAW

Row | Variant | effect of a mutation on the interaction
52 | R361H | with no effect

Variants of: B1
Settings: with smo_human SMO

Row | Variant | effect of a mutation on the interaction
53 | R361H | with no effect

Variants of: B1
Settings: with sox10_human SOX10, P56693

Row | Variant | effect of a mutation on the interaction
54 | R361H | with no effect

Variants of: B1
Settings: with sox2_human SOX2, P48431

Row | Variant | effect of a mutation on the interaction
55 | R361H | with no effect

Variants of: B1
Settings: with sox3_human SOX3, P41225

Row | Variant | effect of a mutation on the interaction
56 | R361H | with no effect

Variants of: B1
Settings: with sox4_human SOX4, Q06945

Row | Variant | effect of a mutation on the interaction
57 | R361H | with no effect

Variants of: B1
Settings: with sox9_human SOX9, P48436

Row | Variant | effect of a mutation on the interaction
58 | R361H | with no effect

Variants of: B1
Settings: with spop_human SPOP

Row | Variant | effect of a mutation on the interaction
59 | R361H | with no effect

Variants of: B1
Settings: with src_human SRC

Row | Variant | effect of a mutation on the interaction
60 | R361H | with no effect

Variants of: B1
Settings: with stat3_human STAT3, P40763

Row | Variant | effect of a mutation on the interaction
61 | R361H | with no effect

Variants of: B1
Settings: with stk38_human STK38, Q15208

Row | Variant | effect of a mutation on the interaction
62 | R361H | with no effect

Variants of: B1
Settings: with ksyk_human SYK

Row | Variant | effect of a mutation on the interaction
63 | R361H | with no effect

Variants of: B1
Settings: with eloc_human ELOC

Row | Variant | effect of a mutation on the interaction
64 | R361H | with no effect

Variants of: B1
Settings: with tfe2_human TCF3, P15923

Row | Variant | effect of a mutation on the interaction
65 | R361H | with no effect

Variants of: B1
Settings: with tead1_human TEAD1, P28347

Row | Variant | effect of a mutation on the interaction
66 | R361H | with no effect

Variants of: B1
Settings: with tead2_human TEAD2, Q15562

Row | Variant | effect of a mutation on the interaction
67 | R361H | with no effect

Variants of: B1
Settings: with tead3_human TEAD3, Q99594

Row | Variant | effect of a mutation on the interaction
68 | R361H | with no effect

Variants of: B1
Settings: with tgfr2_human TGFBR2, P37173

Row | Variant | effect of a mutation on the interaction
69 | R361H | with no effect

Variants of: B1
Settings: with tnr14_human TNFRSF14, Q92956

Row | Variant | effect of a mutation on the interaction
70 | R361H | with no effect

Variants of: B1
Settings: with tpx2_human TPX2, Q9ULW0
tpx2_human TPX2, Q9ULW0, sequence (Q9ULW0 whole entry): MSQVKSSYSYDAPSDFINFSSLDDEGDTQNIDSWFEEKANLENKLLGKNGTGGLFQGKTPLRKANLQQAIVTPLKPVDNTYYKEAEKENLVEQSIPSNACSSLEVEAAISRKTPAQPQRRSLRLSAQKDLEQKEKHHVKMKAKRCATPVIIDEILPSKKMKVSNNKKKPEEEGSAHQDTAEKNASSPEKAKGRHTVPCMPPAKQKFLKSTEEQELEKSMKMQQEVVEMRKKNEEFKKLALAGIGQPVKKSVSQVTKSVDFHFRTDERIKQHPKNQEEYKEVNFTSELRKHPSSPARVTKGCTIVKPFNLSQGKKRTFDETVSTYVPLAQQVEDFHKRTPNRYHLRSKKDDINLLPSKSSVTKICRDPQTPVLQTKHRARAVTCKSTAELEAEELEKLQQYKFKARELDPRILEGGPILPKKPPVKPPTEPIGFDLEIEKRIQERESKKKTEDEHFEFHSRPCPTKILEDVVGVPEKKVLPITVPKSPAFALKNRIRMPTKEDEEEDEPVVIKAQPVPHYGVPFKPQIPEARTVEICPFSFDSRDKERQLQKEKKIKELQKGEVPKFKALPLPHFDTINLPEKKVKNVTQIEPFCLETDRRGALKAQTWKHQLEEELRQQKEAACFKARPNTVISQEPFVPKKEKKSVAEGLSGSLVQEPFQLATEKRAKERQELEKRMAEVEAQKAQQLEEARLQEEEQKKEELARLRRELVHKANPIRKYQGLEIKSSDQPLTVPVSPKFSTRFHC

Row | Variant | effect of a mutation on the interaction
71 | R361H | with no effect

Variants of: B1
Settings: with trrap_human TRRAP

Row | Variant | effect of a mutation on the interaction
72 | R361H | with no effect

Variants of: B1
Settings: with tsc2_human TSC2, P49815

Row | Variant | effect of a mutation on the interaction
73 | R361H | with no effect

Variants of: B1
Settings: with tshr_human TSHR

Row | Variant | effect of a mutation on the interaction
74 | R361H | with no effect

Variants of: B1
Settings: with vhl_human VHL

Row | Variant | effect of a mutation on the interaction
75 | R361H | with no effect

Variants of: B1
Settings: with wt1_human WT1, P19544

Row | Variant | effect of a mutation on the interaction
76 | R361H | with no effect

Variants of: B1
Settings: with wwtr1_human WWTR1, Q9GZV5

Row | Variant | effect of a mutation on the interaction
77 | R361H | with no effect

Variants of: B1
Settings: with xpo1_human XPO1, O14980

Row | Variant | effect of a mutation on the interaction
78 | R361H | with no effect

Variants of: B1
Settings: with 1433b_human YWHAB

Row | Variant | effect of a mutation on the interaction
79 | R361H | with no effect

Variants of: B1
Settings: with 1433e_human YWHAE

Row | Variant | effect of a mutation on the interaction
80 | R361H | with no effect

Variants of: B1
Settings: with 1433z_human YWHAZ

Row | Variant | effect of a mutation on the interaction
81 | R361H | with no effect

Variants of: B1
Settings: with smad3_human SMAD3, P84022
Remark: another data set of the same source

Row | Variant | effect of a mutation on the interaction
82 | R361H | decreasing interaction strength
